The series deals with Type I-F Csy (Cascade) complex with Cas2-3 (cas1, cas3, csy1-csy4), endogenous (Zymomonas mobilis ZM4). Description: cell_activity.

Sequence “AUCUUGACUCCCUCCAUGCACUUAAAAAAUCU / ATCTTGACTCCCTCCATGCACTTAAAAAATCT / AGATTTTTTAAGTGCATGGAGGGAGTCAAGAT [ZMO0038 His-tag crRNA spacer ; ZMO0038 start codon target]” yielded an activity (PAM 5'-TCC-3', His-tag insertion efficiency) of 100%.
“AUGCCGCUUUCGAUCAGGCCGCCGCCAAGAUU / ATGCCGCTTTCGATCAGGCCGCCGCCAAGATT / AATCTTGGCGGCGGCCTGATCGAAAGCGGCAT [ZMO0038 knockout crRNA spacer ; ZMO0038 target]” registered an activity (PAM 5'-CCC-3', knockout efficiency) of 100%.

These data come from patent US20220348939.
